B1: Short transient receptor potential channel 3 (Homo sapiens), Q13507 (parent)
chain: MSTKVRKCKEQARVTFPAPEEEEDEGEDEGAEPQRRRRGWRGVNGGLEPRSAPSQREPHGYCPPPFSHGPDLSMEGSPSLRRMTVMREKGRRQAVRGPAFMFNDRGTSLTAEEERFLDAAEYGNIPVVRKMLEESKTLNVNCVDYMGQNALQLAVGNEHLEVTELLLKKENLARIGDALLLAISKGYVRIVEAILNHPGFAASKRLTLSPCEQELQDDDFYAYDEDGTRFSPDITPIILAAHCQKYEVVHMLLMKGARIERPHDYFCKCGDCMEKQRHDSFSHSRSRINAYKGLASPAYLSLSSEDPVLTALELSNELAKLANIEKEFKNDYRKLSMQCKDFVVGVLDLCRDSEEVEAILNGDLESAEPLEVHRHKASLSRVKLAIKYEVKKFVAHPNCQQQLLTIWYENLSGLREQTIAIKCLVVLVVALGLPFLAIGYWIAPCSRLGKILRSPFMKFVAHAASFIIFLGLLVFNASDRFEGITTLPNITVTDYPKQIFRVKTTQFTWTEMLIMVWVLGMMWSECKELWLEGPREYILQLWNVLDFGMLSIFIAAFTARFLAFLQATKAQQYVDSYVQESDLSEVTLPPEIQYFTYARDKWLPSDPQIISEGLYAIAVVLSFSRIAYILPANESFGPLQISLGRTVKDIFKFMVLFIMVFFAFMIGMFILYSYYLGAKVNAAFTTVEESFKTLFWSIFGLSEVTSVVLKYDHKFIENIGYVLYGIYNVTMVVVLLNMLIAMINSSYQEIEDDSDVEWKFARSKLWLSYFDDGKTLPPPFSLVPSPKSFVYFIMRIVNFPKCRRRRLQKDIEMGMGNSKSRLNLFTQSNSRVFESHSFNSILNQPTRYQQIMKRLIKRYVLKAQVDKENDEVNEGELKEIKQDISSLRYELLEDKSQATEELAILIHKLSEKLNPSMLRCE
partner: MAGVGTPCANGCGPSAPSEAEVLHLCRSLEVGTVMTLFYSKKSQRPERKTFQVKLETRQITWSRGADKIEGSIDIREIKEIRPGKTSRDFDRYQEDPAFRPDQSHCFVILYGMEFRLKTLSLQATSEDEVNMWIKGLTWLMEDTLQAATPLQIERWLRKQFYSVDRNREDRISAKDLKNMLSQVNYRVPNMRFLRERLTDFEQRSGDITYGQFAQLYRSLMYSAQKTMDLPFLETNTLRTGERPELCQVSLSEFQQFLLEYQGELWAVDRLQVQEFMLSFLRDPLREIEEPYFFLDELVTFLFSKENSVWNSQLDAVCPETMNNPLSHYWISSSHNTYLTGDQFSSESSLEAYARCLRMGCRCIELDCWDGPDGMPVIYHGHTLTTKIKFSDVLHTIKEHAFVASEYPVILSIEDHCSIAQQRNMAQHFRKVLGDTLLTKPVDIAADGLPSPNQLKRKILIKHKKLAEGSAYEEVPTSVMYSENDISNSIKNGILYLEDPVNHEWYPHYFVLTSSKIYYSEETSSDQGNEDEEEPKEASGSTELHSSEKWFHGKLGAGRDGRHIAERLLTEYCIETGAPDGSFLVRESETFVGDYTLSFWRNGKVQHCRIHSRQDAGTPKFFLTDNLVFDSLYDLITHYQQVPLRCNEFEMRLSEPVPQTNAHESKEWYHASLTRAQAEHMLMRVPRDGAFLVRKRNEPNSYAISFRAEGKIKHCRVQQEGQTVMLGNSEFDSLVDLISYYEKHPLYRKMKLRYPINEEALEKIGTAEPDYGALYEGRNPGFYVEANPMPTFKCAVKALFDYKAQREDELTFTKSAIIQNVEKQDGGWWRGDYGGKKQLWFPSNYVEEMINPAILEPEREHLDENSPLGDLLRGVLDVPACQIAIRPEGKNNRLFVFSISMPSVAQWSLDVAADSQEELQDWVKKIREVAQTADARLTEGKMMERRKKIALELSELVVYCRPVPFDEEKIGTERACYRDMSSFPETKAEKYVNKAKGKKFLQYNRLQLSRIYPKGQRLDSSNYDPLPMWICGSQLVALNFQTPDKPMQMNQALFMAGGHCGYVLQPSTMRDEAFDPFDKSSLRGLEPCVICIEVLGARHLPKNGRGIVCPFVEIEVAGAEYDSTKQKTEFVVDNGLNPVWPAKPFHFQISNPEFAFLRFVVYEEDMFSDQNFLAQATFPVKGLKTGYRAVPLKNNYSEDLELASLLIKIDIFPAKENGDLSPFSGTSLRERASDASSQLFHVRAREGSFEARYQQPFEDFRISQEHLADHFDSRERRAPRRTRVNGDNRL

Variants of: B1
Conditions: with plcg1_rat Plcg1, P10686

| Variant | effect of a mutation on the interaction |
| --- | --- |
| F116A | decreasing interaction |
| E113A | decreasing interaction |
| L117A | decreasing interaction |

From IntAct's records for PubMed 15744307
